For orientation: IC50 means the concentration at which inhibition is half-maximal. Low values mean inhibition by little substance, high ones a need for much substance.

The record followed here is the Immune Epitope Database (IEDB).

For one assay, the target named is HLA-A*03:01. The experiment in a line: IEDB peptide-MHC binding, purified MHC/competitive/fluorescence; ≥ and ≤ were set here for values at or beyond the usual limits of such assays. The conditions noted are these: source organism: Plasmodium falciparum.
Regarding LSSYVSLPLK, the half-inhibitory concentration (IC50) is 0.654 µM.

The sequence SILPDINKSK showed an IC50 of 12.7 µM.

Sequence KVKSKCNDIK showed an IC50 of 39.3 µM.

In the case of NSIYHKSSTY, the IC50 is no less than 101 µM.

FLDYYKHLSY had an IC50 of no less than 100 µM.

In turn, KIFTFIENK returned an IC50 of 0.467 µM.

In the case of TLNDEYIVSY, the IC50 is no less than 304 µM.

For the sequence SAFLPTGAFK, the IC50 worked out at 0.345 µM.

Sequence HLSYNSIYHK registered an IC50 of 44.2 µM.

VENNFPCSLY returned an IC50 of no less than 85.4 µM.

The sequence ILNNSKFNK returned an IC50 of 0.42 µM.

On to KMMDEYNTKK, for which the IC50 came to 8.48 µM.

In turn, KLKYVTESLK yielded an IC50 of 3.34 µM.

FVCSNRDFLK yielded an IC50 of no less than 100 µM.

In the case of NVNFLQYHFK, the IC50 is no less than 100 µM.

The sequence STCYGNRFNY registered an IC50 of no less than 100 µM.

On to LICGVSPYK, for which the IC50 is 0.419 µM.

ATCKYGFNK: the IC50 was 4.75 µM.

DLMNRTFKK yielded an IC50 of no less than 100 µM.

FIPSHNSFIK showed an IC50 of no less than 100 µM.

Take GSYIYIDTIK: the IC50 was no less than 70.8 µM.

Sequence NSYKEWISKK gave an IC50 of 7.37 µM.

On to RLSHTDIHK, for which the IC50 is 1.74 µM.

On to CVCTYNYYKK, for which the IC50 came out at 14.4 µM.

On to KLNIWRTFQK, for which the IC50 was 2.5 µM.

Regarding FISDDKDSLK, the IC50 was no less than 697 µM.

HIYVQKKVK displayed an IC50 of 0.897 µM.

RTFKKMMDEY showed an IC50 of no less than 100 µM.

RTFQKDELLK had a concentration for half-maximal inhibition (IC50) of 24.2 µM.

The sequence PVATGNQYLK came in with an IC50 of no less than 328 µM.

The sequence HTKIINDKTK had an IC50 of no less than 73 µM.

With SIYHKSSTY, the IC50 amounted to 5.93 µM.

Turning to STCRFFVCK, the IC50 was 5.9 µM.

For the next assay, the target named is HLA-A*02:01. The description is as above. The conditions noted are these: source organism: Plasmodium falciparum.
For the sequence FLPTGAFKA, the IC50 was 1.39 µM.

In turn, YMGNPWTEYM registered an IC50 of 21.4 µM.

In turn, SLFITSDHL registered an IC50 of 7.12 µM.

With KMYSEFKSI, the IC50 came out at 1.02 µM.

CLINNSSYI: the IC50 is 3.82 µM.

Take KLGVQYFFL: the IC50 was 0.805 µM.

Sequence YIYNQIIWKI came in with an IC50 of 1.95 µM.

RQMLYNTFYS returned an IC50 of no less than 319 µM.

Sequence NLFSSIEIV came in with an IC50 of 1.55 µM.

The sequence KMMDEYNTKK returned an IC50 of no less than 511 µM.

In turn, VQYFFLRPYI registered an IC50 of no less than 100 µM.

YIHKLILSV returned an IC50 of 1.15 µM.

YLNKYVYTI showed an IC50 of 0.342 µM.

In turn, HLNNIFHHL displayed an IC50 of 0.225 µM.

Sequence KVKDSWITL had an IC50 of 4.01 µM.

The sequence YLNTNVNDGL showed an IC50 of 2.83 µM.

In turn, KRASHTTPV returned an IC50 of no less than 100 µM.

In the case of SMIKSAFLPT, the IC50 came out at 12.5 µM.

As to YIYIDTIKFI, the IC50 worked out at 53.1 µM.

SLIKQNKYV gave an IC50 of 29.9 µM.

Regarding FISDDKDSL, the IC50 was no less than 336 µM.

Sequence YVGDNINNV came in with an IC50 of 1.82 µM.

On to FLQYHFKEL, for which the IC50 is 14.6 µM.

Consider ILDMSNEYSL, for which the half-inhibitory concentration (IC50) came out at 6.87 µM.

Regarding KINETYDKV, the 50% inhibitory concentration (IC50) was found to be 10.1 µM.

On to VLLLSAFEFT, for which the IC50 is no less than 100 µM.

Consider KLPLESSTI, for which the IC50 stood at 2.12 µM.

In the case of VLNGNDNTI, the IC50 stood at 7.31 µM.

For FVLENGVCI, the IC50 was 4.17 µM.

Turning to FQYNDDASI, the IC50 was 0.275 µM.

Turning to YIFFNNENSI, the IC50 was 2.83 µM.

FIPSHNSFI registered a half-inhibitory concentration (IC50) of 31 µM.

Sequence NIFHHLIYV came in with an IC50 of 2.29 µM.

AVLATILMV displayed an IC50 of 23.6 µM.

Regarding DMSNEYSLFI, the IC50 is no less than 100 µM.

With SVLNGNDNTI, the IC50 is no less than 640 µM.

A further assay concerns the target HLA-A*24:02. The assay is described as above. The conditions noted are these: source organism: Plasmodium falciparum.
Sequence LTIIYIHLF registered a 50% inhibitory concentration (IC50) of 69.5 µM.

On to NYMGNPWTE, for which the IC50 was 37.9 µM.

Turning to KYLFIPSHN, the IC50 was determined as 6.12 µM.

The sequence DMKNYGTNLF registered an IC50 of 5.3 µM.

AYVSCYRVSF displayed an IC50 of 0.0569 µM.

Consider PFHKKFISFF, for which the IC50 is 0.0356 µM.

Regarding QYLKDGGFAF, the IC50 was found to be 0.0419 µM.

Turning to SYNSIYHKS, the half-inhibitory concentration (IC50) came to 57.7 µM.

As for IKLNIWRTF, the 50% inhibitory concentration (IC50) amounted to 1.42 µM.

Turning to NYKLGVQYFF, the IC50 was 26.3 µM.

IFHHLIYVL returned an IC50 of 9.59 µM.

YYRSSRGECI yielded an IC50 of 0.175 µM.

For GYSTKAENKI, the IC50 turned out to be 1.84 µM.

Regarding NFGRGQNYW, the IC50 turned out to be 0.229 µM.

Take RYNLYDKKL: the IC50 was 0.172 µM.

Regarding SYFTYDSEEY, the half-maximal inhibitory concentration (IC50) was 22.3 µM.

On to YLNKYVYTI, for which the IC50 was determined as 0.135 µM.

DFVIIPHYTF came in with an IC50 of 0.289 µM.

Consider EYPLHQEHTY, for which the IC50 is 0.999 µM.

IFFNNENSI gave an IC50 of 0.0569 µM.

The sequence GYNWGNYNTE returned an IC50 of no less than 100 µM.

In the case of PYISKYGNKL, the IC50 came out at 0.179 µM.

On to AYLNKYVYTI, for which the IC50 turned out to be 0.127 µM.

On to EYKDEYADI, for which the IC50 came to 2.1 µM.
